In article PMC10172142:

Legend:
[1] = molecular target: CPR Wolfebacteria Fe-SodFM1, wild type (CPR Wolfebacteria (uncultured bacterial candidate phyla radiation)); experiment: crystal structure; sitting drop vapour diffusion at 20 °C; 100 mM sodium acetate trihydrate pH 4.5, 25% wt/vol polyethylene glycol 3350; data collected at 100 K
[2] = molecular target: CPR Wolfebacteria Fe-SodFM1, wild type (CPR Wolfebacteria (uncultured bacterial candidate phyla radiation)); experiment: SEC; analytical size exclusion chromatography, Superdex 200 10/300 increase, 20 mM Tris pH 7.5, 150 mM NaCl, calibrated with molecular weight standards

“CPR Wolfebacteria Fe-SodFM1, wild type (enzyme)” was tested. Which stoichiometry N [1] did it give?
The stoichiometry N was 2.

What about the stoichiometry N [2] of the same substance?
The stoichiometry N was 2.
